One molecule from PMC5613346 (Biochemistry and Biophysics Reports, 2016) can be followed below.

Assay [1] deals with T1, mouse wtTNF (mouse), P06804.
T1 chain: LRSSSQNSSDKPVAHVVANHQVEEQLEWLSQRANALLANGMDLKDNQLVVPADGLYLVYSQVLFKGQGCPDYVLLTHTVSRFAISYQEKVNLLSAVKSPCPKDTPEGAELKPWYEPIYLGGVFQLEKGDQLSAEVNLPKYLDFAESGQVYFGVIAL
Put plainly: SEC. The settings on record: remark: other sources report otherwise.

Another assay concerns the target T2, mTNFR1 Fc chimera (mouse, UniProt P25118).
T2 sequence: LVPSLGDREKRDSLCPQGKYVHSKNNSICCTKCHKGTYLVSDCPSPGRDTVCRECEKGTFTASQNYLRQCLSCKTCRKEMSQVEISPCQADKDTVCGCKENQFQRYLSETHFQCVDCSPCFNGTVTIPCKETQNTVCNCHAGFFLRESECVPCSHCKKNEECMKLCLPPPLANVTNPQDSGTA
Put plainly: SPR.

Another assay concerns the target T3, mTNFR2 Fc chimera (mouse, UniProt P25119).
T3 sequence: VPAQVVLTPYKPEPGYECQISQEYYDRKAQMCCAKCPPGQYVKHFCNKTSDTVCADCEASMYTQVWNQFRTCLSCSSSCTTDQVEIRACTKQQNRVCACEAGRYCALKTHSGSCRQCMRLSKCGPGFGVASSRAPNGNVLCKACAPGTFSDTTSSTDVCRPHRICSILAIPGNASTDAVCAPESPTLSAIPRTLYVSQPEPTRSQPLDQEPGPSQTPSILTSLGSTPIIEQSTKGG
Put plainly: SPR.

B1: mouse wtTNF (ligand)
chain: LRSSSQNSSDKPVAHVVANHQVEEQLEWLSQRANALLANGMDLKDNQLVVPADGLYLVYSQVLFKGQGCPDYVLLTHTVSRFAISYQEKVNLLSAVKSPCPKDTPEGAELKPWYEPIYLGGVFQLEKGDQLSAEVNLPKYLDFAESGQVYFGVIAL
In assay [1], B1 gave a stoichiometry N of 3. In the assay with mTNFR1 Fc chimera, this molecule yielded a Kd of 5.84 nM, a koff of 0.000969 s⁻¹ and a kon of 166000 M⁻¹ s⁻¹. Moreover, in the assay with mTNFR2 Fc chimera, the Kd was determined as 10.4 nM, the koff came to 0.0056 s⁻¹ and the kon came out at 537000 M⁻¹ s⁻¹.
